Measured values from the supplement of paper PMC9112550, “Optimization of the antimicrobial peptide Bac7 by deep mutational scanning” (BMC Biology, 2022).

test system: Escherichia coli TOP10; experiment: shrunken log2 fold change of peptide-encoding DNA abundance (4.5 h post-induction vs induction); higher = less antimicrobial activity (less host growth inhibition); conditions: time post-induction: 4.5 h; library: site-saturation at positions 5, 18, 19, 20
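Note: peptides expressed intracellularly from a pBAD plasmid library in pooled LB shake-flask culture, induced with 0.3% L-arabinose, DNA abundance read by NGS, three biological replicates, DESeq2 with apeglm shrinkage.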

| Sequence | shrunken log2 fold change |
| --- | --- |
| RRIRARPPRLPRPRPRPCWWPRP | 0.157 |
| RRIRVRPPRLPRPRPRPCHHPRP | -0.00671 |
| RRIRVRPPRLPRPRPRPNCPPRP | -0.0515 |
| RRIRQRPPRLPRPRPRPLWDPRP | -0.0887 |
| RRIRERPPRLPRPRPRPMEDPRP | -0.0739 |
| RRIRDRPPRLPRPRPRPHKLPRP | 0.00695 |
| RRIRWRPPRLPRPRPRPIVAPRP | 0.541 |
| RRIRNRPPRLPRPRPRPGSKPRP | 0.00175 |
| RRIRARPPRLPRPRPRPEITPRP | 0.784 |
| RRIRWRPPRLPRPRPRPVQPPRP | 0.0708 |
| RRIRWRPPRLPRPRPRPARKPRP | -0.0849 |
| RRIRIRPPRLPRPRPRPKEIPRP | -0.113 |
| RRIRWRPPRLPRPRPRPPNDPRP | 0.0849 |
| RRIRVRPPRLPRPRPRPNVAPRP | 0.177 |
| RRIRRRPPRLPRPRPRPLYTPRP | -0.132 |
| RRIRERPPRLPRPRPRPLDVPRP | -0.304 |
| RRIRVRPPRLPRPRPRPIVHPRP | -0.00223 |
| RRIRLRPPRLPRPRPRPESYPRP | -0.266 |
| RRIRFRPPRLPRPRPRPGPTPRP | 0.404 |
| RRIRRRPPRLPRPRPRPQRKPRP | 0.347 |
| RRIRERPPRLPRPRPRPEFNPRP | -0.633 |
| RRIRHRPPRLPRPRPRPCKPPRP | -0.314 |
| RRIRGRPPRLPRPRPRPNWRPRP | 0.595 |
| RRIRARPPRLPRPRPRPETKPRP | 1.27 |
| RRIRWRPPRLPRPRPRPHHFPRP | -0.0138 |

| Sequence | shrunken log2 fold change |
| --- | --- |
| RRIRHRPPRLPRPRPRPRMLPRP | -0.192 |
| RRIRVRPPRLPRPRPRPTSCPRP | 0.961 |
| RRIRRRPPRLPRPRPRPAYAPRP | -0.0409 |
| RRIRARPPRLPRPRPRPKFYPRP | -0.214 |
| RRIRNRPPRLPRPRPRPDWDPRP | -0.108 |
| RRIRNRPPRLPRPRPRPAALPRP | 0.341 |
| RRIRARPPRLPRPRPRPSQAPRP | 0.0359 |
| RRIRNRPPRLPRPRPRPFVMPRP | -0.0984 |
| RRIRHRPPRLPRPRPRPHTCPRP | -0.141 |
| RRIRLRPPRLPRPRPRPCTCPRP | -0.238 |
| RRIRCRPPRLPRPRPRPIWHPRP | -0.239 |
| RRIRLRPPRLPRPRPRPLRLPRP | 0.417 |
| RRIRDRPPRLPRPRPRPEGWPRP | 1.78 |
| RRIRPRPPRLPRPRPRPFTHPRP | -0.466 |
| RRIRERPPRLPRPRPRPTKFPRP | -0.364 |
| RRIRHRPPRLPRPRPRPGPEPRP | 1.6 |
| RRIRDRPPRLPRPRPRPFYPPRP | -0.109 |
| RRIRSRPPRLPRPRPRPSFYPRP | -0.684 |
| RRIRHRPPRLPRPRPRPCPPPRP | -0.845 |
| RRIRVRPPRLPRPRPRPFPDPRP | -0.345 |
| RRIRWRPPRLPRPRPRPRDFPRP | -0.031 |
| RRIRCRPPRLPRPRPRPNRGPRP | -0.00554 |
| RRIRTRPPRLPRPRPRPPWMPRP | -0.00314 |
| RRIRRRPPRLPRPRPRPPIFPRP | 0.16 |
| RRIRNRPPRLPRPRPRPQVNPRP | -0.129 |

| Sequence | shrunken log2 fold change |
| --- | --- |
| RRIRTRPPRLPRPRPRPPIGPRP | 0.0445 |
| RRIRDRPPRLPRPRPRPPLPPRP | 0.737 |
| RRIRTRPPRLPRPRPRPFWSPRP | -0.178 |
| RRIRYRPPRLPRPRPRPVETPRP | -0.0299 |
| RRIRARPPRLPRPRPRPQFWPRP | 0.148 |
| RRIRKRPPRLPRPRPRPPGAPRP | 1.3 |
| RRIRPRPPRLPRPRPRPGNLPRP | -0.376 |
| RRIRVRPPRLPRPRPRPNDCPRP | -0.2 |
| RRIRQRPPRLPRPRPRPDPQPRP | -0.159 |
| RRIRVRPPRLPRPRPRPTRVPRP | 0.0936 |
| RRIRFRPPRLPRPRPRPSFMPRP | -0.393 |
| RRIRFRPPRLPRPRPRPIINPRP | -0.869 |
| RRIRERPPRLPRPRPRPRMSPRP | -0.254 |
| RRIRGRPPRLPRPRPRPSVRPRP | 0.529 |
| RRIRLRPPRLPRPRPRPKPCPRP | -0.158 |
| RRIRMRPPRLPRPRPRPMWDPRP | 0.128 |
| RRIRARPPRLPRPRPRPWWTPRP | 0.239 |
| RRIRSRPPRLPRPRPRPALVPRP | 0.398 |
| RRIRIRPPRLPRPRPRPPIWPRP | -0.00949 |
| RRIRYRPPRLPRPRPRPSQCPRP | -0.115 |
| RRIRERPPRLPRPRPRPVLAPRP | 0.252 |
| RRIRSRPPRLPRPRPRPHCKPRP | -0.397 |
| RRIRLRPPRLPRPRPRPMVCPRP | -0.0634 |
| RRIRYRPPRLPRPRPRPDVGPRP | -0.273 |
| RRIRQRPPRLPRPRPRPDTQPRP | -0.401 |

| Sequence | shrunken log2 fold change |
| --- | --- |
| RRIRPRPPRLPRPRPRPFGVPRP | -0.112 |
| RRIRTRPPRLPRPRPRPTPCPRP | 0.124 |
| RRIRGRPPRLPRPRPRPKEKPRP | 0.0377 |
| RRIRCRPPRLPRPRPRPMIKPRP | -0.497 |
| RRIRSRPPRLPRPRPRPFVFPRP | -0.102 |
| RRIRTRPPRLPRPRPRPLEYPRP | -0.668 |
| RRIRARPPRLPRPRPRPTLNPRP | 0.496 |
| RRIRGRPPRLPRPRPRPSFKPRP | -0.0759 |
| RRIRIRPPRLPRPRPRPDCCPRP | 0.000204 |
| RRIRLRPPRLPRPRPRPWIPPRP | -0.0167 |
| RRIRTRPPRLPRPRPRPPSIPRP | 0.114 |
| RRIRERPPRLPRPRPRPDRSPRP | -0.0225 |
| RRIRSRPPRLPRPRPRPIEMPRP | -0.0731 |
| RRIRTRPPRLPRPRPRPLVNPRP | -0.559 |
| RRIRERPPRLPRPRPRPLQEPRP | -0.154 |
| RRIRKRPPRLPRPRPRPVWQPRP | 0.184 |
| RRIRYRPPRLPRPRPRPFYAPRP | -0.642 |
| RRIRYRPPRLPRPRPRPWWHPRP | -0.757 |
| RRIRKRPPRLPRPRPRPNLDPRP | -0.0443 |
| RRIRQRPPRLPRPRPRPMADPRP | 0.207 |
| RRIRGRPPRLPRPRPRPLQAPRP | 1.86 |
| RRIRVRPPRLPRPRPRPPSPPRP | 0.417 |
| RRIRMRPPRLPRPRPRPIRFPRP | -0.133 |
| RRIRYRPPRLPRPRPRPVWCPRP | -0.0399 |
| RRIRHRPPRLPRPRPRPKVCPRP | -0.19 |

| Sequence | shrunken log2 fold change |
| --- | --- |
| RRIRFRPPRLPRPRPRPRLMPRP | -0.0982 |
| RRIRVRPPRLPRPRPRPVNEPRP | 0.0839 |
| RRIRMRPPRLPRPRPRPLKRPRP | 0.0303 |
| RRIRMRPPRLPRPRPRPISQPRP | -0.29 |
| RRIRDRPPRLPRPRPRPFPIPRP | 0.0144 |
| RRIRLRPPRLPRPRPRPTTSPRP | -0.0271 |
| RRIRTRPPRLPRPRPRPRMNPRP | -0.133 |
| RRIRLRPPRLPRPRPRPGYFPRP | -0.347 |
| RRIRRRPPRLPRPRPRPPFSPRP | 0.207 |
| RRIRCRPPRLPRPRPRPIDHPRP | -1.01 |
| RRIRARPPRLPRPRPRPMTQPRP | 0.249 |
| RRIRFRPPRLPRPRPRPNNSPRP | -0.685 |
| RRIRSRPPRLPRPRPRPYPFPRP | -0.716 |
| RRIRRRPPRLPRPRPRPRMCPRP | 0.17 |
| RRIRNRPPRLPRPRPRPTSCPRP | -0.173 |
| RRIRPRPPRLPRPRPRPGVWPRP | 0.54 |
| RRIRKRPPRLPRPRPRPGCSPRP | 0.289 |
| RRIRPRPPRLPRPRPRPITNPRP | -0.471 |
| RRIRDRPPRLPRPRPRPFMLPRP | -0.342 |
| RRIRDRPPRLPRPRPRPTPVPRP | 0.405 |
| RRIRFRPPRLPRPRPRPQLCPRP | -0.0465 |
| RRIRVRPPRLPRPRPRPGPTPRP | 0.448 |
| RRIRARPPRLPRPRPRPCGPPRP | 0.0702 |
| RRIRQRPPRLPRPRPRPHFCPRP | 0.0177 |
| RRIRDRPPRLPRPRPRPWSYPRP | -1.29 |

| Sequence | shrunken log2 fold change |
| --- | --- |
| RRIRERPPRLPRPRPRPFFNPRP | 1.38 |
| RRIRFRPPRLPRPRPRPMRRPRP | 0.542 |
| RRIRDRPPRLPRPRPRPFVYPRP | -0.344 |
| RRIRWRPPRLPRPRPRPFFNPRP | -0.267 |
| RRIRSRPPRLPRPRPRPMDPPRP | 0.00928 |
| RRIRLRPPRLPRPRPRPFITPRP | -0.35 |
| RRIRRRPPRLPRPRPRPGQNPRP | 0.203 |
| RRIRLRPPRLPRPRPRPRCHPRP | -0.277 |
| RRIRPRPPRLPRPRPRPWARPRP | 0.0379 |
| RRIRIRPPRLPRPRPRPRCWPRP | 0.138 |
| RRIRARPPRLPRPRPRPADFPRP | 0.119 |
| RRIRGRPPRLPRPRPRPACMPRP | 0.671 |
| RRIRQRPPRLPRPRPRPKDMPRP | 0.0374 |
| RRIRNRPPRLPRPRPRPWWWPRP | 0.373 |
| RRIRRRPPRLPRPRPRPIVYPRP | -0.00893 |
| RRIRERPPRLPRPRPRPLTTPRP | -0.395 |
| RRIRRRPPRLPRPRPRPANVPRP | -0.15 |
| RRIRARPPRLPRPRPRPQWMPRP | 0.0371 |
| RRIRERPPRLPRPRPRPAPGPRP | 0.325 |
| RRIRFRPPRLPRPRPRPGDWPRP | 0.666 |
| RRIRFRPPRLPRPRPRPSQVPRP | -0.398 |
| RRIRMRPPRLPRPRPRPYNGPRP | -0.289 |
| RRIRERPPRLPRPRPRPVQAPRP | 0.014 |
| RRIRTRPPRLPRPRPRPEDLPRP | 0.0657 |
| RRIRYRPPRLPRPRPRPQLVPRP | -0.045 |
